According to US20240059758A1 (CORAT THERAPEUTICS, published 2024):

B1: hybrid antibody VL STE90-C11 / VH YU536-D04 (antibody, V domains shown)
VH: QVQLVQSGGGLVQPGGSLRLSCAASGLTVSSNYMSWVRQAPGKGLEWVSVIYSGGSTYYADSVKGRFIISRDNSKNTLYLQMNSLRAEDTAVYYCARDLVVMGLDVWGKGTLVTVSS
VL: DIVMTQSPSFLSASVGDRVTITCRASQGISSYLAWYQQKPGKAPKLLIYAASTLQSGVPSRFSGSGSGTEFTLTISSLQPEDFATYYCQQLNSYPPFTFGPGTKVDIK
B2: hybrid antibody VL STE90-C11 / VH YU537-H11 (antibody, V domains shown)
VH: EVQLLESGGGLIQPGGSLRLSCAASGLTVSSNYMSWVRQAPGKGLEWVSVIYSGGSTYYADSVKGRFTISRDNSKNALYLQMNSLRAEDTAVYYCARGESGSPYGMDVWGQGTLVTVSS
VL: B1 VL
B3: hybrid antibody VL YU537-H11 / VH YU536-D04 (antibody, V domains shown)
VH: B1 VH
VL: QSVLTQPPSVSAAPGQKVTISCSGSSSNIGNNYVSWYQQLPGTAPKLLIYDTNKRPSGIPDRFSGSKSGTSATLGITGLQTGDEADYYCATWDSSLSVGVFGGGTKLTVL
B4: hybrid antibody VL YU536-D04 / VH STE90-C11 (antibody, V domains shown)
VH: QVQLVESGGGLVQPGGSLRLSCAASGLTVSSNYMSWVRQAPGKGLEWVSVIYSGGSTYYADSVKGRFTISRDDSKNTLYLQMNSLRAEDTAVYYCARDVADAFDIWGQGTMVTVSS
VL: DIQLTQSPSSLSASVGDRVTITCRASQGISSYLAWYQQKPGKAPKLLIYAASTLQSGVPSRFSGSGSGTDFTLTISSLQPEDFATYYCQQLNSYPITFGQGTKLEIK
B5: hybrid antibody VL YU537-H11 / VH STE90-C11 (antibody, V domains shown)
VH: B4 VH
VL: B3 VL
B6: hybrid antibody VL YU536-D04 / VH YU537-H11 (antibody, V domains shown)
VH: B2 VH
VL: B4 VL

What follows are binders tested against T1, RBD mutant K417N (SARS-CoV-2, UniProt P0DTC2 319-591) (assay: binding study, FIG. 46).
B1: binds.

What follows are binders tested against T1, RBD mutant K417N (assay: binding study, chain shuffling).
B2: binds.
B3: binds.
B4: binds.
B5: binds.
B6: binds.

The binders below were run against RBD mutant N501Y (SARS-CoV-2, UniProt P0DTC2 319-591) (assay: binding study, chain shuffling).
B1: binds.
B2: binds.
B3: binds.
B4: binds.
B5: binds.
B6: binds.

What follows are binders tested against receptor binding domain (RBD) of SARS-CoV-2 glycoprotein S, wild-type (SARS-CoV-2, UniProt P0DTC2 319-591) (assay: binding study, chain shuffling (example 19)).
B1: binds.
B2: binds.
B3: binds.
B4: binds.
B5: binds.
B6: binds.
